The text below walks through data of article PMC2500142.

The assay concerns the target GFP-actin (UniProt P60709). As to the kind of experiment: dual color fluorescence cross-correlation spectroscopy.

For “DsRed-AQP2 (from UniProt P41181 1-271) (natural protein)”, the relative cross-correlation amplitude ([Gc(0)-1]/[Gr(0)-1]), apical membrane turned out to be 0.33 and the relative cross-correlation amplitude ([Gc(0)-1]/[Gr(0)-1]), subapical region amounted to 0.4.
